B1: Friend leukemia integration 1 transcription factor, residues 116 to 197; numbered along this chain, Q01543 (parent)
chain: NMTTNERRVIVPADPTLWTQEHVRQWLEWAIKEYSLMEIDTSFFQNMDGKELCKMNKEDFLRATTLYNTEVLLSHLSYLRES
B2: Retinoic acid receptor RXR-alpha, residues 132 to 208; numbered along this chain, P19793 (parent)
chain: KHICAICGDRSSGKHYGVYSCEGCKGFFKRTVRKDLTYTCRDNKDCLIDKRQRNRCQYCRYQKCLAMGMKREAVQEE

Variants of: B1
Experiment: abundance fitness (aPCA) (normalised: wild type 0, dead -1); higher = more abundant; growth selection in yeast, the domain comes from the species named
Conditions: Homo sapiens

Abundance fitness of substitutions, site by site:
P15: C -0.398, F -0.851, G -1.07, E -0.854, I -0.028, D -0.489, K -1.09, H -0.892, Q -0.543
N1: A -0.076, V -0.166, K -0.34, M -0.031, R -0.111, L -0.137, G -0.212, Y 0.004, I 0.178
R7: Y -0.125, F -0.179, V -0.05, I -0.247, H -0.284, E -0.044, L 0.155, A -0.243, W -0.179, Q -0.092, S -0.156, P -0.045, K -0.292, G -0.135, M -0.089, C -0.06
P12: C -0.178, R -0.053, K -0.155, F -0.225, V -0.447, E 0.12, D 0.095, G -0.039, T -0.021, S 0.079, M -0.095, I -0.193, N -0.021, L -0.344, A -0.186, Y -0.227, H -0.085
M2: G 0.119, I -0.081, T -0.231, P -0.099, K -0.314, Q 0.011, L -0.005, E -0.361, R 0.057, V -0.584, D -0.545, F 0.092, N -0.184, W -0.057
I10: V 0.035, H -0.033, D 0.207, S 0.231, N 0.103, K 0.086, Y -0.237, G 0.163, T 0.092, Q 0.03, R 0.098, A 0.15, E 0.231, P 0.26, W -0.197, C -0.258, M -0.012, L -0.148, F -0.216
V9: A 0.14, D -0.055, R 0.172, M -0.156, Y -0.605, K 0.116, F -0.018, S 0.212, N 0.18, T 0.039, L -0.045, H 0.099, I -0.122, C 0.046, W 0
N5: T 0.056, F -0.089, H -0.06, P -0.017, R -0.042, Q -0.228, G -0.042, S -0.152, M -0.127, D -0.011, K 0.004, Y -0.121, C 0.019, E -0.039
D14: L -0.51, R -0.701, Y 0.011, K -0.564, T -0.388, N -0.063, M -0.421, C -0.164, F -0.517, P -0.415, S -0.229, W -0.354, Q 0.155, E 0.096, I -0.467, A -0.237, V -0.353
R8: M -0.108, L -0.369, A -0.172, D 0.015, G -0.52, T -0.236, Y -0.403, S -0.215, F -0.174, H -0.039, E 0.045, I -0.406, W -0.452, C -0.301, P -0.026, V -0.297, Q -0.097
V11: Q -0.024, I -0.019, R 0.232, N 0.094, F 0.166, C 0.217, A 0.118, T 0.077, M 0.114, W 0.198, P 0.245, G 0.061, H -0.032, Y 0.031, S 0.156, E 0.015, K 0.148, D -0.004
T3: W -0.022, I -0.078, H -0.359, D -0.537, C 0.009, Y -0.201, M 0.037, Q -0.136, F 0.111, G -0.098, E -0.392, N -0.076, R -0.169, L -0.076, K 0.185, V -0.201, S 0.06, P -0.246, A 0.089
T4: V 0.003, G -0.065, I 0.017, M -0.075, A 0.069, P -0.037, H -0.115, N 0.076, Q -0.085, F -0.048, W -0.03, K -0.005, D 0.045
A13: E 0.189, D 0.121, L -0.003, N 0.183, M -0.036, P 0.162, W 0.023, V 0.017, H -0.179, R 0.023, F -0.081, I 0.048, T 0.051, Y -0.072, G 0.123, Q 0.106
E6: L 0.001, G -0.179, C -0.23, S -0.028, P -0.126, I -0.087, Q -0.174, A -0.185, N -0.022, V -0.092, M -0.163, F -0.435, T -0.013, Y -0.308, H -0.377

Variants of: B2
Experiment: as above
Conditions: Homo sapiens

Abundance fitness of substitutions, site by site:
Q75: E 0.073, M 0.043, G -0.006, P -0.002, W -0.129, N -0.052, H -0.049, L -0.031, V 0.013, Y -0.092, A -0.049, D 0.022, T -0.011, K -0.047, F -0.039, S -0.004, I -0.014, C 0.026, R 0.003
V74: D -0.039, P -0.002, G -0.028, R -0.03, K 0.056, W -0.074, L -0.046, E -0.018, N -0.064, S -0.059, M -0.025, I -0.017, A -0.045, H -0.021, C 0.017, Y -0.039, T 0, Q -0.007
E77: W 0.04, G 0.073, Q -0.012, M -0.034, T 0.106, D -0.002, Y 0.023, I 0.038, F 0.1, R 0.003, C 0.013, N 0.065, V -0.002, H 0.02, L -0.012, K 0.008
A73: T 0.009, P 0.011, G -0.008, C 0.04, V -0.019, I 0.05, S 0.004, Q -0.04, E -0.011, R -0.037, W -0.007, Y -0.056, F -0.01, D 0.048, M 0.044, L -0.027, N 0.015, K -0.081
R71: Y 0.006, W -0.056
E72: H -0.109, I 0.046, M -0.07, P -0.12, A -0.022, G -0.096, C -0.047, V 0.16, L -0.046, S 0.034, R -0.017, F -0.19, W 0.041, Q -0.042, T -0.026, D 0.047
E76: Y -0.011, F 0.003, C 0.023, M -0.036, Q 0.001, V 0, S -0.034, T -0.049, N 0.022, P -0.054, D 0.05, G 0.05, K -0.099, H -0.012, R -0.037, L 0.01, W -0.052

Reference: the Human Domainome abundance scans (Beltran et al. 2025)
